Experimental data as given in patent publication US20170240595 (published 2017).
Where two headings read alike, the source gives them in different places. Bridges are numbered along the chain shown (N, C = ends). Where no end group is shown, it is not given here. [ ]: non-standard residue; d: D form. Bip = N[C@@H](Cc1ccc(-c2ccccc2)cc1)C(=O)O; 2Nal = N[C@@H](Cc1ccc2ccccc2c1)C(=O)O; d2Nal = N[C@H](Cc1ccc2ccccc2c1)C(=O)O; hArg = N=C(N)NCCCC[C@H](N)C(=O)O; 3Pal = N[C@@H](Cc1cccnc1)C(=O)O; Pen = CC(C)(S)[C@H](N)C(=O)O; Nle = CCCC[C@H](N)C(=O)O; Bal = not defined here; GABA = NCCCC(=O)O; βAla = NCCC(=O)O

Legend:
Experiment in all cases: competition
hMC5-R [1] = molecular target: T1, hMC5-R (human, UniProt P33032)
T1 sequence (P33032 whole entry): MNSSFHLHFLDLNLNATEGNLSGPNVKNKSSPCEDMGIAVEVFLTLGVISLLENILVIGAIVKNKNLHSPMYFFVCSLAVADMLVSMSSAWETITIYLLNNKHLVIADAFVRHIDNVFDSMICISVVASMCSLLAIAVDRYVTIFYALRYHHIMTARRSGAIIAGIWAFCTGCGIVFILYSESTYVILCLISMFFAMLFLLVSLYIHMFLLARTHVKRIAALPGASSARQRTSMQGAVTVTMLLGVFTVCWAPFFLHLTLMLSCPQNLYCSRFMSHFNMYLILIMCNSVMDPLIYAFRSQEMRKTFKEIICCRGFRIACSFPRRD

hMC4-R [2] = molecular target: T2, hMC4-R (human, UniProt P32245)
T2 sequence (P32245 whole entry): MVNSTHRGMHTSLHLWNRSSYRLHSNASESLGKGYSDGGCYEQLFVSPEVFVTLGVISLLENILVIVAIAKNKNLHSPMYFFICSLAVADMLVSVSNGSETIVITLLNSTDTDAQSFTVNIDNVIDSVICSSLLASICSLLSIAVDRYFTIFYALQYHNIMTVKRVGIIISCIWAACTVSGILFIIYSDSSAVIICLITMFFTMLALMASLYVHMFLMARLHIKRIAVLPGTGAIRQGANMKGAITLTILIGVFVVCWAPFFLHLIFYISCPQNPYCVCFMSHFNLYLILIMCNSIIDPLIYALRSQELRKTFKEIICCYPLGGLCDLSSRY

hMC1-R [3] = molecular target: T3, hMC1-R (human, UniProt Q01726)
T3 sequence (Q01726 whole entry): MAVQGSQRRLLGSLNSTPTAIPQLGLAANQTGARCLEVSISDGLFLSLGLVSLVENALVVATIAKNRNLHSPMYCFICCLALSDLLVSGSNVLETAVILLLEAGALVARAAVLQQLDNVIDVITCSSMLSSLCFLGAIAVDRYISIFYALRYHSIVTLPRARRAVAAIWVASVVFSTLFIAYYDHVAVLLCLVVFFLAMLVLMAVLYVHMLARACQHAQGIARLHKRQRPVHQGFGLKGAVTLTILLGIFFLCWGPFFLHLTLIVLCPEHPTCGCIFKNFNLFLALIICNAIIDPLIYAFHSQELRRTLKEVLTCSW

hMC3-R [4] = molecular target: T4, hMC3-R (human, UniProt P41968)
T4 sequence (P41968 whole entry): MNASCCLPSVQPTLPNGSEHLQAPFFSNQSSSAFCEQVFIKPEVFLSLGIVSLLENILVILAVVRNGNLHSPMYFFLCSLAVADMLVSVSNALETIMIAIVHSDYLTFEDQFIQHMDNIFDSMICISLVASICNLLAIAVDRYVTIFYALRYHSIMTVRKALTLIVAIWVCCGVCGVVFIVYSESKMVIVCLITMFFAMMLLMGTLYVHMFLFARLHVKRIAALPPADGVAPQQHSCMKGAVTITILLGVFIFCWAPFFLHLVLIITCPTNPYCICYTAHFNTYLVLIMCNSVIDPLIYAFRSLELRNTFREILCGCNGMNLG

hMC5-R [5] = molecular target: T1, hMC5-R; remark: listed apart in the source
hMC3-R [6] = molecular target: T4, hMC3-R; remark: listed apart in the source
hMC4-R [7] = molecular target: T2, hMC4-R; remark: listed apart in the source
hMC1-R [8] = molecular target: T3, hMC1-R; remark: listed apart in the source

Binder | Ki (hMC5-R [1]) | Ki (hMC4-R [2]) | Ki (hMC1-R [3]) | Ki (hMC3-R [4]) | Ki (hMC5-R [5]) | Ki (hMC3-R [6]) | Ki (hMC4-R [7]) | Ki (hMC1-R [8])
[dF]CH[dF]R[Bip][βAla][dC]T-NH2 (disulfide 2-8 (inferred)) [D-Phe-c(Cys-His-D-Phe-Arg-Bip-β-Ala-D-Cys)-Thr-NH2] | 1130 nM | 583 nM | 5.8 nM | 3370 nM | – | – | – | –
[dF]CH[d(Et)Tyr][hArg]W[βAla][dC]T-NH2 (disulfide 2-8 (inferred)) [D-Phe-c(Cys-His-D-(Et)Tyr-hArg-Trp-β-Ala-D-Cys)-Thr-NH2] | – | 14.7 nM | – | – | – | – | – | –
Ac-[Nle]D[dA]H[dF]R[Bal]K-NH2 (lactam 2-8; reading uncertain) [Ac-Nle-c(Asp-D-Ala-His-D-Phe-Arg-Bal-Lys)-NH2] | 4300 nM | 50.6 nM | 4.12 nM | 445 nM | – | – | – | –
Ac-[dR]CH[dF]RW[GABA][Pen]-NH2 (disulfide 2-8; SMILES CC(=O)N[C@H](CCCNC(=N)N)C(=O)N[C@H]1CSSC(C)(C)[C@@H](C(N)=O)NC(=O)CCCNC(=O)[C@H](Cc2c[nH]c3ccccc23)NC(=O)[C@H](CCCNC(=N)N)NC(=O)[C@@H](Cc2ccccc2)NC(=O)[C@H](Cc2c[nH]cn2)NC1=O) [Ac-D-Arg-c(Cys-His-D-Phe-Arg-Trp-Gaba-Pen)-NH2] | – | – | – | – | 538 nM | 172 nM | 11 nM | 3.93 nM
Ac-[Nle]D[dA]H[dF]RWK-NH2 (lactam 2-8; SMILES CCCC[C@H](NC(C)=O)C(=O)N[C@H]1CC(=O)NCCCC[C@@H](C(N)=O)NC(=O)[C@H](Cc2c[nH]c3ccccc23)NC(=O)[C@H](CCCNC(=N)N)NC(=O)[C@@H](Cc2ccccc2)NC(=O)[C@H](Cc2c[nH]cn2)NC(=O)[C@@H](C)NC1=O) [Ac-Nle-c(Asp-D-Ala-His-D-Phe-Arg-Trp-Lys)-NH2] | 4.19 nM | 2.55 nM | 0.659 nM | 98.9 nM | – | – | – | –
CEHXRXAC (cyclic, D-residues) [Ac-c(Cys-Glu-His-D-Phe-Arg-2-Nal-Ala-Cys)-NH2] | 1460 nM | – | 262 nM | – | – | – | – | –

Continued, values first:

Ki (hMC5-R [1]) | Ki (hMC4-R [2]) | Ki (hMC1-R [3]) | Ki (hMC3-R [4]) | Ki (hMC5-R [5]) | Ki (hMC3-R [6]) | Ki (hMC4-R [7]) | Ki (hMC1-R [8]) | Binder
11.1 nM | 21.3 nM | 4.89 nM | – | – | – | – | – | Ac-[Nle]D[dA]H[dF]R[Bal]AK-NH2 (lactam 2-9; reading uncertain) [Ac-Nle-c(Asp-D-Ala-His-D-Phe-Arg-Bal-Ala-Lys)-NH2]
– | – | 1.17 nM | – | – | – | – | – | Ac-[Nle]DH[d2Nal]RWAK-NH2 (lactam 2-8) [Ac-Nle-c(Asp-His-D-2-Nal-Arg-Trp-Ala-Lys)-NH2]
92.6 nM | – | 21.1 nM | 151 nM | – | – | – | – | Ac-[Nle]C[3Pal][dF]RW[GABA]C-NH2 (disulfide 2-8) [Ac-Nle-c(Cys-3-Pal-D-Phe-Arg-Trp-Gaba-Cys)-NH2]
8810 nM | – | 132 nM | 4560 nM | – | – | – | – | Ac-C[dA]H[dF]R[2Nal]AC-NH2 (disulfide 1-8 (inferred)) [Ac-c(Cys-D-Ala-His-D-Phe-Arg-2-Nal-Ala-Cys)-NH2]
– | – | – | – | 502 nM | 20.5 nM | 4.57 nM | 1.81 nM | Ac-RCH[dF]RW[GABA][Pen]-NH2 (disulfide 2-8; SMILES CC(=O)N[C@@H](CCCNC(=N)N)C(=O)N[C@H]1CSSC(C)(C)[C@@H](C(N)=O)NC(=O)CCCNC(=O)[C@H](Cc2c[nH]c3ccccc23)NC(=O)[C@H](CCCNC(=N)N)NC(=O)[C@@H](Cc2ccccc2)NC(=O)[C@H](Cc2c[nH]cn2)NC1=O) [Ac-Arg-c(Cys-His-D-Phe-Arg-Trp-Gaba-Pen)-NH2]
339 nM | 3.01 nM | – | 149 nM | – | – | – | – | Ac-[Nle]C[dA]H[dF]RWGC-NH2 (disulfide 2-9; SMILES CCCC[C@H](NC(C)=O)C(=O)N[C@H]1CSSC[C@@H](C(N)=O)NC(=O)CNC(=O)[C@H](Cc2c[nH]c3ccccc23)NC(=O)[C@H](CCCNC(=N)N)NC(=O)[C@@H](Cc2ccccc2)NC(=O)[C@H](Cc2c[nH]cn2)NC(=O)[C@@H](C)NC1=O) [Ac-Nle-c(Cys-D-Ala-His-D-Phe-Arg-Trp-Gly-Cys)-NH2]
